From US20260062487A1

Key:
[1] = target: HLA-A*01:01 with … (ROBO1) on cells (human); experiment: IP-MS, NCI-H1703 lysate, Rep1
[2] = target: HLA-A*01:01 with … (ERGIC3) from cells (human); experiment: IP-MS, NCI-H1703 lysate, Rep1
[3] = target: off-target HLA-A*01:01_… (PTS) on cells (human); experiment: IP-MS, NCI-H1703 lysate, Rep1
[4] = target: HLA-A*01:01 with … (DSG4) from cells (human); experiment: IP-MS, NCI-H1703 lysate, Rep1
[5] = target: off-target HLA-A*01:01_… (KDM7A) on cells (human); experiment: IP-MS, NCI-H1703 lysate, Rep1
[6] = target: HLA-PEPTIDE target A*01:01_… (G2) on cells (human); experiment: IP-MS, NCI-H1703 lysate, Rep1
[7] = target: HLA-A*01:01 with … (UBR2) from cells (human); experiment: IP-MS, NCI-H1703 lysate, Rep1
[8] = target: HLA-A*01:01 with … (RBM4) from cells (human); experiment: IP-MS, NCI-H1703 lysate, Rep1
[9] = target: off-target HLA-A*01:01_… (ICE1) on cells (human); experiment: IP-MS, NCI-H1703 lysate, Rep1
[10] = target: HLA-A*01:01 with … (DSG3) from cells (human); experiment: IP-MS, NCI-H1703 lysate, Rep1
[11] = target: HLA-A*01:01 with … (ROBO1) on cells (human); experiment: IP-MS, NCI-H1703 lysate, Rep2
[12] = target: HLA-A*01:01 with … (ERGIC3) from cells (human); experiment: IP-MS, NCI-H1703 lysate, Rep2
[13] = target: off-target HLA-A*01:01_… (PTS) on cells (human); experiment: IP-MS, NCI-H1703 lysate, Rep2
[14] = target: HLA-A*01:01 with … (DSG4) from cells (human); experiment: IP-MS, NCI-H1703 lysate, Rep2
[15] = target: off-target HLA-A*01:01_… (KDM7A) on cells (human); experiment: IP-MS, NCI-H1703 lysate, Rep2
[16] = target: HLA-PEPTIDE target A*01:01_… (G2) on cells (human); experiment: IP-MS, NCI-H1703 lysate, Rep2
[17] = target: HLA-A*01:01 with … (UBR2) from cells (human); experiment: IP-MS, NCI-H1703 lysate, Rep2
[18] = target: HLA-A*01:01 with … (RBM4) from cells (human); experiment: IP-MS, NCI-H1703 lysate, Rep2
[19] = target: off-target HLA-A*01:01_… (ICE1) on cells (human); experiment: IP-MS, NCI-H1703 lysate, Rep2
[20] = target: HLA-A*01:01 with … (DSG3) from cells (human); experiment: IP-MS, NCI-H1703 lysate, Rep2
[21] = target: HLA-A*01:01 with … (ERGIC3) from cells (human); experiment: IP-MS, K562-A*01:01 lysate
[22] = target: off-target HLA-A*01:01_… (PTS) on cells (human); experiment: IP-MS, K562-A*01:01 lysate
[23] = target: HLA-A*01:01 with … (UBR2) from cells (human); experiment: IP-MS, K562-A*01:01 lysate
[24] = target: HLA-A*01:01 with … (RBM4) from cells (human); experiment: IP-MS, K562-A*01:01 lysate
[25] = target: HLA-A*01:01 with … (DSG4) from cells (human); experiment: IP-MS, NCI-H1703 lysate, Rep2 (peptide also 0 with W6/32)
[26] = target: HLA-A*01:01 with … (DSG3) from cells (human); experiment: as above
[27] = target: HLA-A*01:01 with … (DSG4) from cells (human); experiment: IP-MS, NCI-H1703 lysate, Rep1 (peptide also 0 with W6/32)
[28] = target: HLA-A*01:01 with … (DSG3) from cells (human); experiment: as above

Substance	copies per cell of the peptide recovered by immunoprecipitation (copies per cell) [2]	copies per cell of the peptide recovered by immunoprecipitation (copies per cell) [3]	copies per cell of the peptide recovered by immunoprecipitation (copies per cell) [7]	copies per cell of the peptide recovered by immunoprecipitation (copies per cell) [8]	copies per cell of the peptide recovered by immunoprecipitation (copies per cell) [9]	copies per cell of the peptide recovered by immunoprecipitation (copies per cell) [12]	copies per cell of the peptide recovered by immunoprecipitation (copies per cell) [13]	copies per cell of the peptide recovered by immunoprecipitation (copies per cell) [17]	copies per cell of the peptide recovered by immunoprecipitation (copies per cell) [18]	copies per cell of the peptide recovered by immunoprecipitation (copies per cell) [19]	further results
W6/32 antibody	3360	2930	891	16700	2660	3350	2980	876	16700	2740	copies per cell of the peptide recovered by immunoprecipitation (copies per cell) [1]: 554; copies per cell of the peptide recovered by immunoprecipitation (copies per cell) [4]: 0; copies per cell of the peptide recovered by immunoprecipitation (copies per cell) [5]: 2; copies per cell of the peptide recovered by immunoprecipitation (copies per cell) [6]: 3790; copies per cell of the peptide recovered by immunoprecipitation (copies per cell) [10]: 0; copies per cell of the peptide recovered by immunoprecipitation (copies per cell) [11]: 517; copies per cell of the peptide recovered by immunoprecipitation (copies per cell) [14]: 0; copies per cell of the peptide recovered by immunoprecipitation (copies per cell) [15]: 2; copies per cell of the peptide recovered by immunoprecipitation (copies per cell) [16]: 4040; copies per cell of the peptide recovered by immunoprecipitation (copies per cell) [20]: 0; copies per cell of the peptide recovered by immunoprecipitation (copies per cell) [21]: 96; copies per cell of the peptide recovered by immunoprecipitation (copies per cell) [22]: 91; copies per cell of the peptide recovered by immunoprecipitation (copies per cell) [23]: 6; copies per cell of the peptide recovered by immunoprecipitation (copies per cell) [24]: 1000
control IgG antibodies (antibody)	25	32	6	113	35	15	25	4	79	21	copies per cell of the peptide recovered by immunoprecipitation (copies per cell) [25]: 0; copies per cell of the peptide recovered by immunoprecipitation (copies per cell) [26]: 0; copies per cell of the peptide recovered by immunoprecipitation (copies per cell) [27]: 0; copies per cell of the peptide recovered by immunoprecipitation (copies per cell) [28]: 0
